From PMC6745058 (Molecular cell, 2019)

Biological target: T1, Rtt107NTD (BRCT1-4 domains of Rtt107, residues 2-513) (S. cerevisiae, UniProt P38850 2-513)
T1 sequence (looked up): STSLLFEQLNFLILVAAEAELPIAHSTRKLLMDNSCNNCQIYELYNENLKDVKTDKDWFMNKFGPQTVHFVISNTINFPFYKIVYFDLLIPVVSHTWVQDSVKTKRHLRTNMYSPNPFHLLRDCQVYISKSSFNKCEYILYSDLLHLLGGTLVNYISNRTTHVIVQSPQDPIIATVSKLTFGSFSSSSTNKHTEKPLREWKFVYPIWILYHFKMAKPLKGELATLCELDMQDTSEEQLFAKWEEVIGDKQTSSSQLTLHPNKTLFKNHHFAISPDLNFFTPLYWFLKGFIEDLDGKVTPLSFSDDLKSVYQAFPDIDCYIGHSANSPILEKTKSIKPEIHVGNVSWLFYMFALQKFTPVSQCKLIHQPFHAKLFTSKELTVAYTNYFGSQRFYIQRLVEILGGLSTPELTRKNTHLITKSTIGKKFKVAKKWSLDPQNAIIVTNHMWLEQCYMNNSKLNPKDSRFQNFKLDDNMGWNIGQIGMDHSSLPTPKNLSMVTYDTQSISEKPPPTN
Assay: ITC

Kd: 15 nM
Binder: DVDEPNPIVISDSEATDEEISIIYEPEFNENYLWAEE (peptide, UniProt Q06164 2-38, looked up) [Mms22RIM peptide (Mms22 residues 2-38)]
